In the experiment the target is T1, human insulin receptor extracellular domain (HIR ECD) (human, UniProt P06213 28-956, limits assumed).
T1 construct: extracellular domain
The experiment in a line: competitive ligand binding assay, displacement of [125I] murine HIRMAb from plated HIR ECD, Scatchard analysis. The method, then: CHO cells permanently transfected with the HIR ECD were grown in serum free media (SFM), and the HIR ECD was purified with a wheat germ agglutinin affinity column.
A general note: Displacement assays read how much labelled ligand stays bound in the presence of the test substance.

Broadly, the Ki is the dissociation constant of the complex between target and ligand, obtained from inhibition or displacement.

B1: chimeric HIRMAb (chimeric monoclonal antibody to the human insulin receptor) (antibody, human IgG1, kappa)
heavy: not shown
light: DIQMTQSPSSLSASLGERVSLTCRASQDIGGNLYWLQQGPDGTIKRLIYATSSLDSGVPKRFSGSRSGSDYSLTISSLESEDFVDYYCLQYSSSPWTFGGATKMEIKRTVAAPSVFIFPPSDEQLKSGTASVVCLLNNFYPREAKVQWKVDNALQSGNSQESVTEQDSKDSTYSLSSTLTLSKADYEKHKVYACEVTHQGLSSPVTKSFNRGEC
notes: chimeric human IgG1/kappa
B1 returned an inhibition constant (Ki) of 630 pM.

These data come from US20070082380A1 (ARMAGEN TECHNOLOGIES, published 2007).
